Stoichiometry N data for 1 substance are collected here from article doi:10.1101/2020.04.20.050518.

In the test the target is 50S ribosomal subunit. The experiment in a line: cryo-EM 2D classification.

50S ribosomal subunit (complex) gave a stoichiometry N of 2.

In general, stoichiometry N refers to a count of units in the complex or per binding partner.
